# Assay results published in IntAct's records for PubMed 24520911.
# B1: Lon protease homolog, mitochondrial (Homo sapiens), P36776 (parent)
# chain: MAASTGYVRLWGAARCWVLRRPMLAAAGGRVPTAAGAWLLRGQRTCDASPPWALWGRGPAIGGQWRGFWEASSRGGGAFSGGEDASEGGAEEGAGGAGGSAGAGEGPVITALTPMTIPDVFPHLPLIAITRNPVFPRFIKIIEVKNKKLVELLRRKVRLAQPYVGVFLKRDDSNESDVVESLDEIYHTGTFAQIHEMQDLGDKLRMIVMGHRRVHISRQLEVEPEEPEAENKHKPRRKSKRGKKEAEDELSARHPAELAMEPTPELPAEVLMVEVENVVHEDFQVTEEVKALTAEIVKTIRDIIALNPLYRESVLQMMQAGQRVVDNPIYLSDMGAALTGAESHELQDVLEETNIPKRLYKALSLLKKEFELSKLQQRLGREVEEKIKQTHRKYLLQEQLKIIKKELGLEKDDKDAIEEKFRERLKELVVPKHVMDVVDEELSKLGLLDNHSSEFNVTRNYLDWLTSIPWGKYSNENLDLARAQAVLEEDHYGMEDVKKRILEFIAVSQLRGSTQGKILCFYGPPGVGKTSIARSIARALNREYFRFSVGGMTDVAEIKGHRRTYVGAMPGKIIQCLKKTKTENPLILIDEVDKIGRGYQGDPSSALLELLDPEQNANFLDHYLDVPVDLSKVLFICTANVTDTIPEPLRDRMEMINVSGYVAQEKLAIAERYLVPQARALCGLDESKAKLSSDVLTLLIKQYCRESGVRNLQKQVEKVLRKSAYKIVSGEAESVEVTPENLQDFVGKPVFTVERMYDVTPPGVVMGLAWTAMGGSTLFVETSLRRPQDKDAKGDKDGSLEVTGQLGEVMKESARIAYTFARAFLMQHAPANDYLVTSHIHLHVPEGATPKDGPSAGCTIVTALLSLAMGRPVRQNLAMTGEVSLTGKILPVGGIKEKTIAAKRAGVTCIVLPAENKKDFYDLAAFITEGLEVHFVEHYREIFDIAFPDEQAEALAVER
# partner: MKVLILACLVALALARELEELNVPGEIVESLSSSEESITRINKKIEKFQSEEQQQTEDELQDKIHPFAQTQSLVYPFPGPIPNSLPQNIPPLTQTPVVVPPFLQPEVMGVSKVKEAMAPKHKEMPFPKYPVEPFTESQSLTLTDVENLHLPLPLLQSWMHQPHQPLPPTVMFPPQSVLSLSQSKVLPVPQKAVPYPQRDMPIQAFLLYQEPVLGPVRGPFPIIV
# Variants of: B1
# Conditions: with casb_bovin CSN2, P02666
row,Variant,effect of a mutation on the interaction
1,K529R,decreasing interaction

# Variants of: B1
# Conditions: with casb_bovin CSN2, P02666
# Remark: another data set of the same source
row,Variant,effect of a mutation on the interaction
1,G893P,decreasing interaction

# Variants of: B1
# Conditions: with casb_bovin CSN2, P02666
# Remark: another data set of the same source
row,Variant,effect of a mutation on the interaction
1,G893P;G894A,decreasing interaction

# Variants of: B1
# Conditions: with casb_bovin CSN2, P02666
# Remark: another data set of the same source
row,Variant,effect of a mutation on the interaction
1,W770P,decreasing interaction

# Variants of: B1
# Conditions: with casb_bovin CSN2, P02666
# Remark: another data set of the same source
row,Variant,effect of a mutation on the interaction
1,G894P,decreasing interaction

# Variants of: B1
# Conditions: with casb_bovin CSN2, P02666
# Remark: another data set of the same source
row,Variant,effect of a mutation on the interaction
1,G893A;G894P,decreasing interaction
